# From US8003609B2, “Method for ameliorating pain by modification of NMDA receptors through inhibition of Src” (The Hospital for Sick Children, priority 2004, dated 2011)
# Experiments:
# [1] = target: T1, association of Src with the NMDAR complexes (Rattus norvegicus, UniProt P11662); assay: co-immunoprecipitation of Src with NMDARs from PSD proteins; format: binding
# T1 construct: from tissue; host or cells: rat brain post-synaptic density fraction
# Description: (§1) Detailed protocols for in vitro binding assays, pull down assays, immunoblotting, and co-immunoprecipitation techniques can be found in Pelkey et al. (Neuron 34:127-138 2002).
# Post-synaptic density proteins (Kennedy et al. Proceedings of the National Academy of Science USA 80:7357-7361 1983) were prepared from rat brain as described in detail (Pelkey et al. Neuron 34:127-138 2002). Cellular fractionation of rat brain tissue into nuclear, heavy mitochondrial, light mitochondrial, microsomal, and cytosolic fractions was performed by differential centrifugation of tissue homogenate in 0.25 M sucrose/10 mM HEPES-NaOH, 1 mM EDTA, pH 7.4 with 2 μg each of aprotinin, pepstatin A, and leupeptin (Sigma, St. Louis, Mo.) at 4° C. Nuclei were pelleted by centrifugation at 1 000 g for 10 minutes, the supernatant was removed and spun at 3 000 g for 10 minutes to obtain a heavy mitochondrial pellet. The supernatant was removed and spun at 16 000 g for 15 minutes to obtain a light mitochondrial pellet. The supernatant was removed and spun at 100 000 g for 1 hour to obtain a microsomal pellet and the cytosolic fraction. All pellets were then resuspended in RIPA buffer (50 mM Tris pH 7.6, 150 mM NaCl, 1 mM EDTA, 1% NP-40, 2.5 mg/ml NaDOC, 1 mM Na3VO4 1 mM PMSF, and 2 μg/ml each of protease inhibitors). The light mitochondrial fraction was used in subsequent experiments. […]
# LTP in CA1 neurons = conditions: cited from earlier work
# [2] = target: T2, interaction between the ND2.1-GST and Src unique domain proteins (Homo sapiens, UniProt P03891, A265T); assay: ND2.1-GST probed with biotinylated Src unique domain in the presence of peptide or antibody; format: binding; conditions: in vitro, ND2.1-GST incubated with peptide
# T2 construct: made in house; host or cells: BL21 bacteria
# T2 sequence (P03891 239-318 A265T): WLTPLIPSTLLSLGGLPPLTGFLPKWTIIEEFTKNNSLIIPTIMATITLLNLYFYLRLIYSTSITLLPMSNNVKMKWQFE
# Source text: as §1
# ND2 acts as an adapter protein for Src. […] Furthermore, the effect of Src40-58 on the interaction between Src and ND2 was examined (FIGS. 4D and 4E). […] Thus, it was concluded that amino acids 40-58 of Src interact with the region spanned by ND2.1, thereby mediating the binding between the Src unique domain and ND2.
# ND2.2-GST = target: T3, ND2.2-GST (Homo sapiens, UniProt P03891); assay: dot blot of biotinylated Src peptides on ND2.2-GST; format: binding; conditions: biotinylated peptide
# T3 construct: amino acids 189-238 (ND2.2-GST); made in house; host or cells: bacteria
# T3 sequence (P03891 189-238): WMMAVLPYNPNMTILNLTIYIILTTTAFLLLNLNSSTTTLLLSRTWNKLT
# Description: Src, Fyn, and ND2 recombinant proteins were prepared. The cDNAs encoding the SH3 and SH2 domains of mouse n-Src and Fyn were PCR subcloned, ligated in frame into pGEX4T-1 (Amersham Pharmacia Biotech, Baie d'Urfé, Québec), and sequenced. These plasmids, as well as plasmids encoding the unique domains of Src and Fyn in pGEX2T'6, were transformed into BL21 bacteria, and GST fusion proteins were purified by glutathione affinity chromatography. To create the ND2.1, ND2.2, and ND2.3 GST fusion proteins, cDNAs encoding amino acids 239-321 (ND2.1-GST; SEQ ID NO:7), amino acids 189-238 (ND2.2-GST; SEQ ID NO:11), and amino acids 1-188 (ND2.3-GST; SEQ ID NO:13) of human ND2 were PCR subcloned and ligated into pGEX4T-1 (the nucleotide sequence encoding ND2 is SEQ ID NO:8 and the amino acid sequence is SEQ ID NO:9; the nucleotide sequences encoding ND2.1; ND2.2 and ND2.3 are SEQ ID NOS:6, 10 and 12, respectively). Using PCR-based single nucleotide mutagenesis, all cDNAs encoding ND2 fusion proteins were corrected for differences between mitochondrial and nuclear codons to prevent premature translation termination and protein truncation. […]
# Src40-58 and scrambled Src peptides were biotinylated by incubating with Sulfo-NHS-Biotin (Pierce Chemical Co., Rockford, Ill.) for 30 minutes at room temperature (SEQ ID NO:4, Src protein). […] Bound probe was then detected on film using an ECL kit.
# T1 sequence (P11662 whole entry, other chains not shown): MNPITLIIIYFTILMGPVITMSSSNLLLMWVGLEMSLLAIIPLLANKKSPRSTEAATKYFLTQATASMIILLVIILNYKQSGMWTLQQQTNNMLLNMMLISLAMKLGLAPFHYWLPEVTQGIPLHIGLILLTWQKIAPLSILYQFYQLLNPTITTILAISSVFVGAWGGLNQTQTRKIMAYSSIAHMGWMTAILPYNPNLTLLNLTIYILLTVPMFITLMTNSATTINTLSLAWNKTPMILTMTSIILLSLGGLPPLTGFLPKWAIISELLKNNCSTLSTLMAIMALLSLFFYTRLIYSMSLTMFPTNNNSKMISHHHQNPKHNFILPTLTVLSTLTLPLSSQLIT
substance,measurement,setting,value
Src40-58: peptide comprising amino acid residues 40-58 of SEQ ID NO:4 (Src) (PASADGHRGPSAAFAPAAA; listed as Homo sapiens),co-immunoprecipitation of Src with NMDARs,[1],suppressed
same,LTP in CA1 neurons,LTP in CA1 neurons,prevented
same,effect on ND2.1-GST pulling down the Src unique domain protein,[2],prevented
same,binding to ND2.2-GST,ND2.2-GST,Neither Src40-58 nor scrambled Src40-58 bound
